Laboratory results from patent US12419977B2, “Radiopharmaceuticals” (AdvanCell Isotopes Pty Limited, priority 2022, dated 2025).

Tested on: PC3-PIP (PSMA expressing) and PC3 (PSMA deficient) tumours
Set-up: species or system male BALB/c nude mice
Details: mouse, in vivo
Method: In vivo biodistribution studies of [^212Pb]Pb-ADVC001 were performed using an animal model of prostate cancer. Tumour xenographs were grown on opposite flanks of male BALB/c nude mice after inoculation with 10^6 PC3-PIP (PSMA expressing) and PC3 (PSMA deficient) cell lines. In this model, the PC3 tumours act as a control to assess the specificity of [^212Pb]Pb-ADVC001 uptake within PSMA expressing tumours. Once the tumours had reached 5-10 mm in size, 3 groups (representing 3 different time points) of 5 mice were injected with 300-325 kBq of [^212Pb]Pb-ADVC001 via the lateral tail vein. At 1, 4 and 24 hours after injection, mice were euthanised and multiple organs collected and weighed. Radioactivity in each organ was counted using a well-type gamma counter (counting window 218-258 keV). Activity levels of [^212Pb]Pb-ADVC001 expressed as percent injected dose/gram of tissue (% ID/g) measured from each organ over the 3 time points are given in Table 1 with the biodistribution plots presented in FIG. 1A. Activity accumulation over time of [^212Pb]Pb-ADVC001 for major organs (kidney, liver and bone marrow) along with tumour uptake is provided in FIG. 3. […] The biodistribution of [^212Pb]Pb-PSMA-I&T expressed as percent injected dose/gram of tissue (% ID/g) measured from each organ over the 3 time points is presented in FIG. 1B. […]

## NC(=O)CN1CCN(CC(N)=O)CCN(C(CCC(=O)N[C@H](Cc2ccc(O)c(I)c2)C(=O)N[C@H](Cc2ccccc2)C(=O)N[C@H](CCCCNC(=O)CCCCCCC(=O)NCCCC[C@H](NC(=O)N[C@@H](CCC(=O)O)C(=O)O)C(=O)O)C(=O)O)C(=O)O)CCN(CC(N)=O)CC1 (stereo partly shown) [[^212Pb]Pb-ADVC001, metal not drawn]
  tumour to kidney activity ratio: significantly higher
